Key:
TWIST2 Q119X [1] = target: T1, TWIST2 Q119X (Homo sapiens, UniProt Q8WVJ9 1-118); assay: EMSA; homodimer; EMSA: 20 mM HEPES pH 7.9, 60 mM KCl, 1 mM MgCl2, 0.5 mM DTT, 10% glycerol, 10 µL with 1-3 µL TnT lysate; competitor at least 50x molar excess; 6% native gel, 0.5X TBE, 4 °C; binding temperature not stated; conditions: protein: ivt; tags: Myc; chain copies: 2; label: 32P as probe; blunt
T1 sequence: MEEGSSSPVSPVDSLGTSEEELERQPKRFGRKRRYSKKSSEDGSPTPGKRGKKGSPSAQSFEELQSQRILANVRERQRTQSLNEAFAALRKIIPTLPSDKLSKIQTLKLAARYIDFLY

TWIST2 Q119X [2] = target: T1, TWIST2 Q119X; assay: EMSA; EMSA: 20 mM HEPES pH 7.9, 60 mM KCl, 1 mM MgCl2, 0.5 mM DTT, 10% glycerol, 10 µL with 1-3 µL TnT lysate; competitor at least 50x molar excess; 6% native gel, 0.5X TBE, 4 °C; binding temperature not stated; conditions: protein: ivt; tags: Myc; chain copies: 2; label: 32P as probe; blunt

B1: CH2700EA (dsDNA)
DNA 1: TGGTGGTGGTCACATGAATATACACATGCGATAAAATT
DNA 2: AATTTTATCGCATGTGTATATTCATGTGACCACCACCA
binding result (TWIST2 Q119X [1]): no binding

B2: CH2600TWI (dsDNA)
DNA 1: TATATACACAGGCAAATGAGTGCATATAAA
DNA 2: TTTATATGCACTCATTTGCCTGTGTATATA
binding result (TWIST2 Q119X [2]): no binding

From article PMC10530651, “Mechanisms of Regulation of the CHRDL1 Gene by the TWIST2 and ADD1/SREBP1c Transcription Factors”
